Consider 5 molecules from patent publication US20040219635A1 (Dana-Farber, published 2004).

Numbering of substitutions follows the chain as printed. Ends that are not written are not given here.

In test [1] the target is T1, HA-pVHL (UniProt P40337 1-213).
T1 construct: In the cells it sits in complexes; also called 35S-HA-pVHL; 35S-labeled pVHL
As to the kind of experiment: peptide binding assay; unpublished data (16).

Test [2] deals with T1, HA-pVHL. The test can be described thus: peptide elution of HIF from anti-HA immunoprecipitates of HA-pVHL (ts20 cells); failure to displace.
Test [3] has as its target T2, pVHL (form used not given) (UniProt P40337 1-213).
T2 construct: also called wild-type pVHL
As to the kind of experiment: binding to GST-ODD after phosphatase treatment; unpublished data (16).

The target in test [4] is T3, immobilized GST-pVHL, elongin B, elongin C complexes (UniProt P40337 54-213; Q15370 1-118; Q15369 17-112).
T3 construct: also called GST-VBC; GST-VHL, elongin B, elongin C complexes
As to the kind of experiment: capture of 35S-labeled protein on immobilized GST-VBC.

T1 sequence (P40337 whole entry): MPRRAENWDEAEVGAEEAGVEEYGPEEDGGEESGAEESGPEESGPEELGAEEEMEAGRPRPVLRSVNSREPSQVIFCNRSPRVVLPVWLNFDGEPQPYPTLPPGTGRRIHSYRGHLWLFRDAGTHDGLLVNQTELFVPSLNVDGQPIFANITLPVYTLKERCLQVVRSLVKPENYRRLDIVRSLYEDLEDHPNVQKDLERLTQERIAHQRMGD
T2 sequence (P40337 whole entry): as above

B1: biotinylated HIF (556-575) peptide with Met561 and Met568 replaced with alanine (peptide, UniProt Q16665 556-575, looked up)
peptide: DLDLEALAPYIPADDDFQLR
modifications: also: biotinylated (site not given here)
notes: Made for the mass spectrometry experiments
Turning to B1, the binding result with HA-pVHL [1] is “binds”.
With DLDLEMLAAYIPMDDDFQLR (peptide, UniProt Q16665 556-575, looked up, also: biotinylated (site not given here)) [biotinylated HIF1α(556-575) Pro564Ala peptide], the binding result with HA-pVHL [2] is recorded as “no binding (tested: 7 µg of peptide in 65 µl of PBS)”.

B2: GST-HIF1α(530-652) produced in E. coli and preincubated with rabbit reticulocyte lysate (other, UniProt Q16665 530-652, looked up)
chain: EFKLELVEKLFAEDTEAKNPFSTQDTDLDLEMLAPYIPMDDDFQLRSFDQLSPLESSSASPESASPQSTVTVFQQTQIQEPTANATTTTATTDELKTVTKDRMEDIKILIASPSPTHIHKETT
modifications: modified by a factor in reticulocyte lysate; later examples identify the modification as hydroxylation of Pro 564
notes: range 530-652; Incubated with rabbit reticulocyte lysate for 90 min at 30° C; also called GST-ODD; not shown: glutathione S-transferase (GST) fusion partner
B2: the binding result in test [3] is given as “binds”.

B3: Leu562Ala Gal4-HA-HIF1α(530-652) (other)
chain: B2 chain with L33A
notes: range 530-652; also called Gal4-ODD Leu562Ala; not shown: Gal4 portion
Take B3: the binding result in test [4] was “no binding”.

B4: Pro564Ala Gal4-HA-HIF1α(530-652) (other)
chain: B2 chain with P35A
notes: range 530-652; also called Gal4-ODD Pro564Ala; not shown: Gal4 portion
B4: the binding result in test [4] was “no binding”.
